How the values were obtained:
[1] = tested on: Thamnostylum piriforme ATCC 8992; assay: Fungal bioconversion of thebaine to northebaine by Thamnostylum piriforme cultures; type: cell-based
Experimental: (§1) Cunninghamella echinulata ATCC 9244 was propagated on potato dextrose agar at room temperature. Mature cultures on plates (7-10 days) were used for the preparation of concentrated spore suspensions. Spores were harvested by flooding the lawn culture with a sterile solution containing 0.9% sodium chloride and 0.01% Tween 80 (10 ml/plate), scratching them from the hyphae with the aid of a sterile loop and filtering the suspension through sterile cotton to remove hyphal fragments. Thamnostylum piriforme ATCC 8992 was propagated on malt extract agar (CM0059) at room temperature and spore suspensions were prepared as indicated above. […]
(§2) Media was inoculated with 0.25 ml of freshly-prepared spore suspensions. […] Eleven days after thebaine addition, supernatants were collected and analyzed by LC-MS. […] Thebaine and northebaine were monitored in the supernatants, reaching a conversion level of 25% on day 12 after substrate addition (FIG. 2).

[2] = tested on: Cunninghamella echinulata ATCC 9244; assay: Fungal bioconversion of thebaine to northebaine by Cunninghamella echinulata cultures; type: cell-based; conditions: 0.5 mg/ml thebaine added after 48 h of growth; eleven days after thebaine addition; supernatant, LC-MS
Experimental: as §1, §2

thebaine [3] = assay: Conversion of thebaine by demethylases heterologously expressed in Aspergillus nidulans; conditions: 0.5 mM thebaine, Minimal Medium pH 7, 84 hours; supernatant, LC-MS
thebaine [4] = assay: Bioconversion of thebaine (N-demethylation to northebaine) by S. cerevisiae expressing cytochrome P450s and CPRs, LC-MS; conditions: 0.5 mM thebaine
oripavine [5] = assay: Bioconversion of oripavine (N-demethylation to nororipavine) by S. cerevisiae expressing cytochrome P450s and CPRs, LC-MS; conditions: 0.5 mM oripavine
thebaine [6] = assay: In planta conversion of thebaine by transient expression of demethylases and CPRs in Nicotiana benthamiana leaves; conditions: co-expressed with CPR_DN10898_c0_g1_i1_co or Cel_CPR_co; leaves re-infiltrated with 0.5 mM thebaine after 4 days, measured 1 day after
codeine = assay: In vitro N-demethylation of codeine by mammalian cytochrome P450s in crude yeast cell lysates; conditions: crude cell extract with human CPR and cytochrome b5; 0.2 mM substrate, pH 7, 30° C., approximately 20 hours; compared to negative control strain without cytochrome P450s
oripavine [7] = assay: In vitro N-demethylation of oripavine by mammalian cytochrome P450s in crude yeast cell lysates; conditions: crude cell extract with human CPR and cytochrome b5; 0.2 mM substrate, pH 7, 30° C., approximately 20 hours; compared to negative control strain without cytochrome P450s
thebaine [8] = assay: In vitro N-demethylation of thebaine by mammalian cytochrome P450s in crude yeast cell lysates; conditions: crude cell extract with human CPR and cytochrome b5; 0.2 mM substrate, pH 7, 30° C., approximately 20 hours; compared to negative control strain without P450s
salutaridine = assay: In vitro N-demethylation of salutaridine by mammalian cytochrome P450s in crude yeast cell lysates; conditions: crude cell extract with human CPR and cytochrome b5; 0.2 mM substrate, pH 7, 30° C., approximately 20 hours; compared to negative control strain without cytochrome P450s
salutaridinol = assay: In vitro N-demethylation of salutaridinol by mammalian cytochrome P450s in crude yeast cell lysates; conditions: crude cell extract with human CPR and cytochrome b5; 0.2 mM substrate, pH 7, 30° C., approximately 20 hours; compared to negative control strain without cytochrome P450s
[9] = pH 7, co-expressed with Cel_CPR_co, 72 h
[10] = pH 7, 72 h, co-expressed with native or codon-optimized T. piriforme CPRs or Cel_CPR

**Q.** What does the source list for `COC1=CC=C2[C@H]3Cc4ccc(OC)c5c4[C@@]2(CCN3C)[C@H]1O5` [Thebaine, thebaine]?
**A.** conversion of thebaine to northebaine ([1]; 0.5 mg/ml thebaine added after 48 h of growth, eleven days after thebaine addition, supernatant, LC-MS): 16%; conversion level of thebaine to northebaine ([1]; new T. piriforme cultures, day 12 after substrate addition): 25%; conversion of thebaine to northebaine [2]: 6%

B1: P450_DN12791_co: P450_DN_12791 from T. piriforme, codon optimized for S. cerevisiae (pEV32227) (protein)
chain: MAILQNLVLQSDQRHLGVVTAAVFLSAYALYRHESKKELGNECPTVPYTNPMFGSTDEYRKNPAAFVEKWSAALGPVFRVHIFGRMQTVVSGRYVREVLFNDNFSFVEGIRTRFDLRLLTGIPNSHLNDKDVREVVVKSLTAQMKKYTPRAVHYLSVGLQEALGDLKDPRTLDNLFLTVQNMVAKASASIFVGEELCNNIELVDTFKHVTSDIGSEIRLDNTWLEFFKTINQIRMWYVGKHSPRVTKHRRQLIQAMAPEIDRRLQGLAGNDPSWTRPEDILQEIMENYPSPSTVPADIYTYYANWMIVLIFASVHTTTEHATIVLYRLLQQPELIDELLQEQKEALGQGTVFTGEVIRKLVKLDSVCRESLRIKNEYFGLPHRNMSHENISLSNGVVIKPGDNVMLNVWTNHHDSDLQKDVHGNHDKFEPFRYVNADRPATKIGDDYLIFGEGKHACPGRWFALQEIKTIVSVLIRDYTLTPCGPIVFPSGTSTGIPSGEVTIQRKSEV
modifications: codon-optimized; Thamnostylum piriforme
**Q.** Which results are given for B1?
**A.** northebaine production in Aspergillus nidulans vs vector control (thebaine [3]): production of northebaine was achieved; thebaine N-demethylation activity (thebaine [4]; pH 7, co-expressed with Cel_CPR_co, 72 h, no significant difference between codon optimized and non-codon optimized versions): lower; nororipavine titers (oripavine [5]; [9]): highest nororipavine titers

B2: Lr_P450_co: P450 from Lichtheimia ramosa, codon optimized for S. cerevisiae (protein, listed as Lichtheimia ramosa)
chain: MTEIKEHIYRYRHYIGVAAAVALVCQQVYYRIFRIPKNLRHIPAIPYGQQLKALRSDEALTSRTKRLVFPLLSKCNGVYLNRMPFKWTIYVADPEIARAILFKPEFGHKTRSVTDSLDKNSSLFEFVGDDNIAIVNGHEWKEQRKIMNPAFHRATPVGMFGSLMPKVFRLVEEQPTLPALDLMQKLTLDALGKSVFGFEFGALDDPDSVWVKTYRQVFDSFTDVFSLVFPRLDPIYRYFSAKHREQYNAVYKLIDLLDGMADKKRSMLQDASNSDIKDVPDHEKDLLQLMLEAELRGEGSWTKRELRHNMAIFFVAGQDTTSHALTFCLYLLAKNQDIQKKAREEILNVFGDEPKDVFPTLEDCKKLNYLDMVIKESMRIYPPANDVLARDVNEDLNVKGVFIPKGSMVSVDIHALHHRPDLWHEPDKFNPDRFLPGGEHDSHVGVTYAPFSSGSRQCIALKFATMQQRVVLSMLLRKYEWELPKDSKHKDSIQFQIPFNIAPKDLELTFHKRY
modifications: codon-optimized
**Q.** Which results are given for B2?
**A.** northebaine production in Aspergillus nidulans vs vector control (thebaine [3]): not apparent; northebaine levels in N. benthamiana leaves vs negative P19 control (thebaine [6]): clear increase in northebaine; activity towards thebaine, converting it to northebaine (thebaine [4]; pH 7, 72 h, co-expressed with CPR_DN5866_c0_g1_i1_Cd9, CPR_DN10898_c0_g1_i1_1A or Cel_CPR_co (at least one of the tested CPRs)): performing the best conversion of thebaine into northebaine; northebaine titer (thebaine [4]; [9]): more than 7 mg/L; northebaine titers higher compared to P450_DN15259_co (thebaine [4]; [9]): 2 fold

B3: Hs_CYP2C8: Cytochrome P450 2C8 (P10632), Homo sapiens (protein, UniProt P10632 1-490, looked up)
Cytochrome P450 2C8: MEPFVVLVLCLSFMLLFSLWRQSCRRRKLPPGPTPLPIIGNMLQIDVKDICKSFTNFSKVYGPVFTVYFGMNPIVVFHGYEAVKEALIDNGEEFSGRGNSPISQRITKGLGIISSNGKRWKEIRRFSLTTLRNFGMGKRSIEDRVQEEAHCLVEELRKTKASPCDPTFILGCAPCNVICSVVFQKRFDYKDQNFLTLMKRFNENFRILNSPWIQVCNNFPLLIDCFPGTHNKVLKNVALTRSYIREKVKEHQASLDVNNPRDFIDCFLIKMEQEKDNQKSEFNIENLVGTVADLFVAGTETTSTTLRYGLLLLLKHPEVTAKVQEEIDHVIGRHRSPCMQDRSHMPYTDAVVHEIQRYSDLVPTGVPHAVTTDTKFRNYLIPKGTTIMALLTSVLHDDKEFPNPNIFDPGHFLDKNGNFKKSDYFMPFSAGKRICAGEGLARMELFLFLTTILQNFNLKSVDDLKNLNTTAVTKGIVSLPPSYQICFIPV
**Q.** What does the source list for B3?
**A.** in vitro N-demethylation activity on codeine (codeine): detected; in vitro N-demethylation activity on oripavine (oripavine [7]): detected; in vitro N-demethylation activity on Thebaine (thebaine [8]): detected; in vitro N-demethylation activity on salutaridine (salutaridine): detected; in vitro N-demethylation activity on salutaridinol (salutaridinol): detected

B4: Mc_S2JT25_co: codon-optimized cytochrome P450 S2JT25 from Mucor circinelloides (protein)
chain: MTLIASYNQTLLERVISVVRKNKTSYIGMAILCVVLQQVYASFTVPPKYLRRYPTVSFFEMMKSFYRKESVLNRNKRLVTPLTNAGHGFYVCRIPLDWTIYVTDPIAAKTLLLKTDNFPKSHAIFGALGESSPAVKFMGSENVAVSNGEMWKKQRKIMNPAFHRSQPVKLFGGVMPDLFALIDQDPEHVFVAPRMKSFALDALGLSAFGFDFQSLKGDPEGWTSKYNTVISTLFNPFINLFAKYDFLIKYISPERRRVIKATDEFNVMLSNLADKRRQEILDGEKKDMAENEKDLLTLMIEADIREGVETTTTELRHNMAIFFLAGHDTTANTLALCLYQLAKHKHVQKKARQEVLDILGDDPCDVTPTLEDLKKLNYVNMVIKENLRRNSPVDNLMARDTHQDIDLNGTFIPKGSKVTVNVASIHLNPKIWHDPESFIPERFEPGGEYDGHDGFTWIPFSNGSRQCLGLNFSLTEQRVVLCMLLKRYEIEIPKDSIHYNEIVFDKPFTFAPQSLELSFKKRY
modifications: codon-optimized; Mucor circinelloides
**Q.** B4 was tested. Which “northebaine production in Aspergillus nidulans vs vector control” value (thebaine [3]) did it give?
**A.** production of northebaine was achieved

**Q.** And the “northebaine levels in N. benthamiana leaves vs negative P19 control” value (thebaine [6])?
**A.** clear increase in northebaine

**Q.** What about the “northebaine amount compared to Lr_P450_co” value (thebaine [4]; [10]) of the same molecule?
**A.** yielded the highest northebaine amount

**Q.** What about the “amount of nororipavine compared to Lr_P450_co” value (oripavine [5]; [10]) of the same molecule?
**A.** resulted in the highest amount of nororipavine

— US11781164B2, “Demethylation of reticuline and derivatives thereof with fungal cytochrome P450” (priority 2017, dated 2023)
